Reference: article PMC10359594
Where two headings read alike, the source gives them in different places.

What was measured:
[1] = target: T1, SAMHD1 113-626 (HD domain) (Homo sapiens, UniProt Q9Y3Z3 113-626); test: crystal structure
SAMHD1 C522A = SAMHD1 C522A (Homo sapiens, UniProt Q9Y3Z3 1-626, C522A); test: fluorescence anisotropy
SAMHD1 WT [2] = target: T2, SAMHD1 WT (Homo sapiens, UniProt Q9Y3Z3 1-626); test: fluorescence anisotropy
SAMHD1 WT [3] = target: T2, SAMHD1 WT; test: fluorescence anisotropy; remark: listed apart in the source
[4] = target: T1, SAMHD1 113-626 (HD domain); test: crystal structure; remark: listed apart in the source
SAMHD1 113-626 R451E = SAMHD1 113-626 R451E (Homo sapiens, UniProt Q9Y3Z3 113-626, R451E); test: fluorescence anisotropy
Sequence of SAMHD1 113-626 R451E (Q9Y3Z3 113-626 R451E): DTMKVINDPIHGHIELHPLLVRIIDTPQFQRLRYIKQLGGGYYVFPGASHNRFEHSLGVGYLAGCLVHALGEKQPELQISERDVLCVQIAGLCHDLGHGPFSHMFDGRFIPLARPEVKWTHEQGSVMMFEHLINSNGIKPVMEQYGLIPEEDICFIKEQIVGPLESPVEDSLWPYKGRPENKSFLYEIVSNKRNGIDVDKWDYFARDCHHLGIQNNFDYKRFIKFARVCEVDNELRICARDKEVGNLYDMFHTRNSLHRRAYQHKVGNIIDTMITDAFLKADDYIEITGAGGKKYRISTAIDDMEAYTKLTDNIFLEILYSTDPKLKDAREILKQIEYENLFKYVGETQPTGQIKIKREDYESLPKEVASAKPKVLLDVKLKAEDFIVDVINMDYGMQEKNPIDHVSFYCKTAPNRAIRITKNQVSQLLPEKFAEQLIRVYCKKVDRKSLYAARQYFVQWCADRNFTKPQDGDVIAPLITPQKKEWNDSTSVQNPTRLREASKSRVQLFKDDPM

T2 sequence (Q9Y3Z3 whole entry): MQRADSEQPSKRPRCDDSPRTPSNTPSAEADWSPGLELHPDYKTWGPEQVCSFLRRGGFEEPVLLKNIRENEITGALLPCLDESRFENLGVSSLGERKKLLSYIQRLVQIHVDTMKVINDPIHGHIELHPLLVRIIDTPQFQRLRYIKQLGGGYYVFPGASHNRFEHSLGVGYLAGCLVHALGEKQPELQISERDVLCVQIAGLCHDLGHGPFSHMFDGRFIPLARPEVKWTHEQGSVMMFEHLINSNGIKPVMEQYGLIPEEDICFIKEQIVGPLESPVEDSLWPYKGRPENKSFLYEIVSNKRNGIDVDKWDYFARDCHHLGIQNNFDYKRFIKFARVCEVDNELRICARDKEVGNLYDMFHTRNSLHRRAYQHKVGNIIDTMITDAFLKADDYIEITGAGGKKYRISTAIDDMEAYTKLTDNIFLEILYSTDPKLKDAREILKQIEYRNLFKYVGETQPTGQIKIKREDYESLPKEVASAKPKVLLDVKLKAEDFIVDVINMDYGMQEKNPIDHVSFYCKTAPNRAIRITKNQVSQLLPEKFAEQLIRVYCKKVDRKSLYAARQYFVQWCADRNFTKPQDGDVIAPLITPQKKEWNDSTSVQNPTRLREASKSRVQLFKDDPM
T1 sequence (Q9Y3Z3 113-626): as the sequence (Q9Y3Z3 113-626 R451E) above, with E339R counted along it
Sequence of SAMHD1 C522A (Q9Y3Z3 whole entry C522A): as the sequence (Q9Y3Z3 whole entry) above, with C522A counted along it

B1: CATTG 5mer (ssDNA)
DNA: CATTG
B1: binds [1].

B2: dsDNA 30mer (dsDNA)
DNA 1: GACAGTGTTGAGACAGGACCAGACAGGTAG
DNA 2: CTACCTGTCTGGTCCTGTCTCAACACTGTC
B2: no binding (SAMHD1 C522A).

B3: 3' overhang (mixed)
DNA 1: TGGAGAATCCCGGTGCCGAGGCCGCTCAATTGGTCGTAGACAGCTCTAGCACCGCTT
DNA 2: TGAGCGGCCTCGGCACCGGGATTCTCCA
B3: binds (SAMHD1 WT [2]).

B4: 3' fork (mixed)
DNA 1: TGGAGAATCCCGGTGCCGAGGCCGCTCAATTGGTCGTAGACAGCTCTAGCACCGCTT
DNA 2: AATTGTGAGCGGCCTCGGCACCGGGATTCTCCA
B4: binds (SAMHD1 WT [3]).

B5: CATGT 5mer (ssDNA)
DNA: CATGT
B5: binds [4].

B6: ssDNA 30mer (ssDNA)
DNA: GACAGTGTTGAGACAGGACCAGACAGGTAG
B6: no binding (SAMHD1 113-626 R451E).
